# Experimental data reported in patent publication US11285274B2, “Methods for the systemic delivery of therapeutic agents to the pulmonary system using a droplet delivery device” (PNEUMA RESPIRATORY, INC., priority 2016, dated 2022).
# Values joined by “and” are separate entries in the source; they are usually repeats but may differ in a detail not shown here. Identical values can stand only once.
# Columns and labels:
# [1] = system: patients with cystic fibrosis; conditions: cited from earlier work
# [2] = Size exclusion chromatography (SEC) stability after aerosol generation with test device; assay type: physicochemical; conditions: for Peak Area %, Peak 1 / Peak Area %, Peak 2 / Peak Area %, Peak 3: Insulin (Humalog Kwikpen 200 U/ml)
# Source text: Alternately, to determine the stability of active agent after droplet generation, the generated stream of droplets including the active agent may be collected and […] may be employed to monitor for any changes in large molecule aggregation and protein fragment content. Soluble protein aggregates and protein fragment content may be calculated by comparing respective peak area under the SEC-HPLC curve of dispensed protein solutions with controls (solutions remaining in the device reservoir). Drug solutions for testing include Enbrel, (ENBREL® single-use prefilled syringes in 25 mg (0.51 mL of a 50 mg/mL solution of etanercept), and insulin, (Humalog, 200 units/ml, 3 ml […] is performed with a YarraTM 3 um SEC-2000 LC column 300×7.8 mm, SecurityGuard cartridge kit and SecurityGuard cartridges GFC-2000, 4×3 mm ID. Fifty microliters of Enbrel from the syringe (ENBREL® single-use prefilled syringes in 25 mg/0.51 mL of a 50 mg/mL solution of etanercept) is diluted (4:1) (4 parts, 200 mcl of the mobile phase buffer solution to 1 part, 50 mcl Enbrel from syringe). Fifty microliter of the diluted Enbrel is injected and separation was performed at a flow rate of 1.0 ml/min. The mobile phase buffer system included a PHOS. BUFF. SALINE. […] UV detection is performed at 280 nm. […] Aerosol collection and SEC is performed in a similar fashion as for the Enbrel analysis and aerosol collection. […] Fifty microliters of the collected aerosol spray is injected onto the SEC column for analysis, while 50 mcl of the […] insulin solution is injected onto the SEC column for control samples.
# [3] = Gel electrophoresis of active agent after droplet generation; assay type: physicochemical
# Source text: To determine the stability of active agent after droplet generation, the generated stream of droplets including the active agent is collected and the molecular weight of the active agent is verified using gel electrophoresis.
# [4] = aerosolized with test device (20 actuations), SEC
# [5] = Insulin aerosolized with test device
# [6] = Enbrel aerosolized with test device
# [7] = Enbrel aerosolized, average of S1 and S2
# [8] = Enbrel diluted 4:1 (10 mg/ml), control (not aerosolized), SEC, UV 280 nm
molecule,measurement,setting,value
NC[C@H]1O[C@H](O[C@H]2[C@H](O)[C@@H](O[C@H]3O[C@H](CO)[C@@H](O)[C@H](N)[C@H]3O)[C@H](N)C[C@@H]2N)[C@H](N)C[C@@H]1O [tobramycin],pulmonary function and kidney side effects,[1]; administration by inhalation,significantly improves pulmonary function without severe side effects to kidney functions
same,serum levels and kidney toxicity,[1]; intravenous administration,very high serum levels that are toxic to the kidneys
Insulin,"Peak Area %, Peak 1",[2]; [4],27.881% and 28.721%
same,"Peak Area %, Peak 2",[2]; [4],69.780% and 67.807%
same,"Peak Area %, Peak 3",[2]; [4],2.184% and 2.797%
same,"Peak Area %, Peak 1","[2]; control (not aerosolized), SEC",29.926%
same,"Peak Area %, Peak 2","[2]; control (not aerosolized), SEC",69.630%
same,"Peak Area %, Peak 3","[2]; control (not aerosolized), SEC",0%
same,fraction of the ejected dose forming a fragment which elutes at ~25 minutes,[2]; [5],2.5%
same,fraction of the ejected dose structurally unchanged,[2]; [5],97.5%
same,"Peak Area %, Peak 3, Avg.","[2]; Insulin aerosolized, average of S1 and S2",2.4905%
adalimumab,change in electrophoretic mobility (molecular weight) of post-aerosol active agent from control,[3],negligible change
bevacizumab,change in electrophoretic mobility (molecular weight) of post-aerosol active agent from control,[3],negligible change
etanercept [Enbrel],fraction of the dose forming molecular fragments with elution times of 13 and 25 minutes,[2]; [6],4.6%
same,fraction structurally unchanged after delivering an aerosol dose,[2]; [6],95.4%
same,"Peak Area %, Peak 4, Avg.",[2]; [7],0.3545%
same,"Peak Area %, Peak 5, Avg.",[2]; [7],4.2755%
same,"Peak Area %, Peak 4",[2]; [8],0%
same,"Peak Area %, Peak 5",[2]; [8],0%
same,change in electrophoretic mobility (molecular weight) of post-aerosol active agent from control,[3],negligible change
